The target in data set [1] is T1, shikimate dehydrogenase (SDH) (Thermus thermophilus, UniProt Q5SJF8).
T1 construct: gene aroE; pET-11a in E. coli Rosetta 2 (DE3) pLysS; heat treatment at 80°C and HiTrap SP purification
T1 sequence (Q5SJF8 1-263): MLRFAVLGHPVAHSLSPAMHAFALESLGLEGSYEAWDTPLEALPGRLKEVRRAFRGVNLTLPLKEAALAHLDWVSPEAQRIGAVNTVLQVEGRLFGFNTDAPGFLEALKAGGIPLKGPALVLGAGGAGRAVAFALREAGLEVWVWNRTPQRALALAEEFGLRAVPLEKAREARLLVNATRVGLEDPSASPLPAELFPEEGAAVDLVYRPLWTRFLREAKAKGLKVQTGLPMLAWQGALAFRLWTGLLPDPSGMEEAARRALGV
Put plainly: HPLC ([…] nm) of shikimic acid formed in coupled reaction with RsPtxD. Type of data set: biochemical. The settings on record: NADPH regenerated from 0.1 mM NADP by RsPtxD HARRA mutant; 20 mM phosphite; 100 mM HEPES pH 8.0; 45°C.

Data set [2] concerns NC(=O)c1ccc[n+]([C@@H]2O[C@H](COP(=O)(O)OP(=O)(O)OC[C@H]3O[C@@H](n4cnc5c(N)ncnc54)[C@H](O)[C@@H]3O)[C@@H](O)[C@H]2O)c1. Put plainly: purified protein. The settings on record: 1 mM phosphite, 100 mM MOPS pH 7.3.
Data set [3] has as its system NC(=O)c1ccc[n+]([C@@H]2O[C@H](COP(=O)(O)OP(=O)(O)OC[C@H]3O[C@@H](n4cnc5c(N)ncnc54)[C@H](OP(=O)(O)O)[C@@H]3O)[C@@H](O)[C@H]2O)c1. Put plainly: purified protein. The settings on record: 1 mM phosphite, 100 mM MOPS pH 7.3.
Data set [4] relates to O=[PH](O)O. Put plainly: purified protein. The conditions noted are these: 1 mM NADP as co-substrate, 100 mM MOPS pH 7.3.
Substrate in data set [5]: NC(=O)c1ccc[n+]([C@@H]2O[C@H](COP(=O)(O)OP(=O)(O)OC[C@H]3O[C@@H](n4cnc5c(N)ncnc54)[C@H](OP(=O)(O)O)[C@@H]3O)[C@@H](O)[C@H]2O)c1
The experiment in a line: purified protein. The conditions noted are these: 1 mM phosphite, 100 mM MOPS pH 7.3. The source holds these as a separate data set.

Substrate in data set [6]: O=[PH](O)O
The experiment in a line: purified protein. The conditions noted are these: 1 mM NAD as co-substrate, 100 mM MOPS pH 7.3.

Substrate in data set [7]: NC(=O)c1ccc[n+]([C@@H]2O[C@H](COP(=O)(O)OP(=O)(O)OC[C@H]3O[C@@H](n4cnc5c(N)ncnc54)[C@H](O)[C@@H]3O)[C@@H](O)[C@H]2O)c1
Put plainly: purified protein. The conditions noted are these: 1 mM phosphite, 100 mM MOPS pH 7.3. This is another data set of the same source.

From paper PMC8047080, “Engineering Cofactor Specificity of a Thermostable Phosphite Dehydrogenase for a Highly Efficient and Robust NADPH Regeneration System” (Frontiers in Bioengineering and Biotechnology, 2021) come the findings set out here.

For orientation: Km means the concentration of substrate that gives half-maximal velocity. What is called kcat/Km is the turnover number divided by the Michaelis constant.

With `NC(=O)C1=CN([C@@H]2O[C@H](COP(=O)(O)OP(=O)(O)OC[C@H]3O[C@@H](n4cnc5c(N)ncnc54)[C@H](OP(=O)(O)O)[C@@H]3O)[C@@H](O)[C@H]2O)C=CC1` [NADPH], the “HPLC (230 nm) of shikimic acid formed in coupled reaction with RsPtxD” value in data set [1] is “SDH catalyzes the reduction of 3-DHS to SA”.

On to “RsPtxD (Ralstonia sp. 4506; C174H/D175A/I177K/P176R/P178A)”, for which, in data set [2], the Km turned out to be 130 ± 10.6 µM, the kcat was determined as 154 ± 7.5 min^–1 and the kcat/Km was determined as 20000 M⁻¹ s⁻¹. In addition, in data set [3], the Km worked out at 4.4 ± 0.9 µM, the kcat turned out to be 129 ± 12.1 min^–1 and the kcat/Km was determined as 493000 M⁻¹ s⁻¹. Also, the Km in data set [4] was determined as 27 ± 9.0 µM.

For the molecule “RsPtxD (Ralstonia sp. 4506; C174H/D175A/I177R/P176R/P178A)”, the figures for the Km in data set [2], in data set [3] and in data set [4] were 112 ± 1.3 µM, 2.9 ± 0.5 µM and 38 ± 8.5 µM, respectively. Further, the kcat in data set [2] came to 148 ± 14.8 min^–1; in data set [3], 128 ± 16.6 min^–1. The kcat/Km in data set [2] was found to be 21700 M⁻¹ s⁻¹; in data set [3], 735000 M⁻¹ s⁻¹.

Turning to “RsPtxD (Ralstonia sp. 4506; C174H/D175A/P176R)”, in data set [2], the Km amounted to 154 ± 14.7 µM, the kcat was 155 ± 2.3 min^–1 and the kcat/Km stood at 16700 M⁻¹ s⁻¹. In data set [3], the Km worked out at 24 ± 5.2 µM, the kcat was 118 ± 6.8 min^–1 and the kcat/Km is 81700 M⁻¹ s⁻¹.

In the case of “RsPtxD (Ralstonia sp. 4506; D175A/P176R)”, in data set [2], the Km was determined as 412 ± 21.5 µM, the kcat was found to be 115 ± 13.0 min^–1 and the kcat/Km stood at 5000 M⁻¹ s⁻¹. Besides, in data set [3], the Km was 56 ± 5.1 µM, the kcat is 91.1 ± 3.9 min^–1 and the kcat/Km came to 26700 M⁻¹ s⁻¹.

B1: RsPtxD (Ralstonia sp. 4506) (protein)
chain: MKPKVVLTHWVHPEIIELLSASADVIPNTTRETLPRSEVIARAKDADALMAFMPDSIDSAFLEECPKLRVIGAALKGYDNFDVNACTRHGVWLTIVPDLLTIPTAELTIGLLLGLTRHMLEGDRQIRSGHFQGWRPTLYGSGLTGKTLGIIGMGAVGRAIAQRLAGFEMNLLYCDPIPLNAEQEKAWHVQRVTLDELLEKCDYVVPMVPMAAETLHLIDATALAKMKTGSYLINACRGSVVDENAVIAALASGKLAGYAADVFEMEEWIRADRPQAIPKALLDNTAQTFFTPHLGSAVKEVRLEIERQAAMNIIQALAGEKPMGAINQPYPGVKAA
On to B1, for which, in data set [5], the Km was 418 ± 38.7 µM and the kcat came to 16.0 ± 6.3 min^–1. Moreover, the Km in data set [6] came to 37.0 ± 7.0 µM. In data set [7], the Km worked out at 7.7 ± 2.3 µM, the kcat was found to be 127 ± 16.8 min^–1 and the kcat/Km stood at 277000 M⁻¹ s⁻¹.
